Test results: patent publication US20160106861A1, “AXL ANTIBODY-DRUG CONJUGATE AND ITS USE FOR THE TREATMENT OF CANCER” (PIERRE FABRE MEDICAMENT, priority 2013, published 2016)

Target: T1, rhAxl-Fc protein (Homo sapiens, UniProt P30530)
T1 construct: purchased R and D Systems 154AL/CF
T1 sequence (P30530 26-451 limits assumed): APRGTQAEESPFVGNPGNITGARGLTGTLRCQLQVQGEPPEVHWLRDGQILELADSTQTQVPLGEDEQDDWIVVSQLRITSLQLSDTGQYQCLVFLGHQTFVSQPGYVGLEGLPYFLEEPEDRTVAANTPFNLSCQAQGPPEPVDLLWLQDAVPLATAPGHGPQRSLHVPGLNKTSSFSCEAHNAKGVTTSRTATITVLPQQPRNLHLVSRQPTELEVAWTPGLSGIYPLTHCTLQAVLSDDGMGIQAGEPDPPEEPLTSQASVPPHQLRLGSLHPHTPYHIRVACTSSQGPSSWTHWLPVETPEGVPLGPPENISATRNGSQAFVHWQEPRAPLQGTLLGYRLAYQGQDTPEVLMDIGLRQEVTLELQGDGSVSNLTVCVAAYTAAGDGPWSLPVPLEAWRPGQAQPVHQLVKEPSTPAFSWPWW
Assay: ELISA with coated 1613F12 and a range of rhAxl-Fc protein (hz vs. m)
Type: binding
Conditions: FIG. 3
Experimental: In this assay, 96 well plates (Immulon II, Thermo Fisher) were coated with a 5 μg/ml of 1613F12 solution in 1×PBS, overnight at 4° C. After a saturation step, a range of rh Axl-Fc protein (R and D Systems, ref: 154-AL) is incubated for 1 hour at 37° C. on the coated plates. For the revelation step, a biotinylated-Axl antibody (in house product) was added at 0.85 μg/ml for 1 hour at 37° C. This Axl antibody belongs to a distinct epitopic group. Then an avidin-horseradish peroxidase solution at 1/2000° in diluent buffer is added to the wells. Then the TMB substrate solution is added for 5 min. After addition of the peroxydase stop solution, the absorbance at […] was measured with a microplate reader.

B1: hz1613F12: humanized Axl antibody 1613F12 (antibody, V domains shown)
VH: QVQLVQSGAEVKKPGASVKVSCKASGFNIRDTYMHWVRQAPGQGLEWMGRLDPANGHTKYAQKFQGRVTMTRDTSISTAYMELSRLRSDDTAVYYCARGAYYYGSSGLFYFDYWGQGTLVTVSS
VL: DVQMTQSPSSLSASVGDRVTITCRASKSISKYLAWYQQKPGKVPKLLIYSGSTLQSGVPSRFSGSGSGTDFTLTISSLQPEDVATYYCQQHHEYPLTFGGGTKVEIK
modifications: Hz1613F12 VH - Consensus 2; Hz1613F12 VL - Consensus 2
notes: humanized Axl antibody 1613F12
  binding of rhAxl-Fc protein, murine versus humanized version: bind similarly the rhAxl-Fc protein
